Assay results taken from patent US20100056445A1, “ADIPONECTIN FOR THE TREATMENT AND DIAGNOSIS OF ALBUMINURIA” (THOMAS JEFFERSON UNIVERSITY, priority 2006, published 2010).
“Also recorded” adds a separate entry of the source.

Experiments:
AMPK = AMPK activity (p-Thr172 AMPKα) in podocytes by immunoblotting and confocal microscopy; type: cell-based, mouse
From the text: Western immunoblotting: Total protein from mouse podocytes was solubilized in lysis buffer containing 1% Triton X-100, Protease Inhibitor Cocktail (Mini Complete Protease Inhibitor Cocktail, Roche, Germany), PMSF, and phosphatase inhibitors. Protein was resolved on SDS-PAGE and transferred to a nitrocellulose membrane (Bio-Rad, Hercules, Calif.) as previously described (29). The membrane was immunoblotted initially with rabbit anti mouse phospho-AMPKα (p-AMPKα) monoclonal antibody or with rabbit anti AMPKα monoclonal (Cell Signaling Technology, New England Bio Labs, Boston, Mass.). Subsequently membranes were blotted with a secondary donkey anti-rabbit antibody (Amersham Biosciences, Piscataway, N.J.) conjugated to horseradish peroxidase (HRP). […]
Immunohistochemistry: Immunocytochemistry was performed as described previously (30). […] Fluorescence pictures were obtained using confocal laser fluorescence microscope (LSM-510, Carl Zeiss, Jena, Germany). […] Quantitation of p-AMPKα positive cells was performed on 50 glomeruli from 4 mice in each group.
Immunohistochemistry: Immunocytochemistry was performed as described previously (30). […] Fluorescence pictures were obtained using confocal laser fluorescence microscope (LSM-510, Carl Zeiss, Jena, Germany). […] Quantitation of p-AMPKa positive cells was performed on 50 glomeruli from 4 mice in each group. […]

[1] = tested on: Adiponectin KO (Ad−/−) mice; assay: Urine albumin/creatinine ratio in treated adiponectin KO mice; type: in vivo, mouse; conditions: AdKO mice at 4 months of age; gAd 25 μg twice daily for 10 days (gAd or fAd)
Procedure: Adiponectin administration and animal studies: The mice were treated with 25 μg of recombinant human globular domain adiponectin (gAd; PepROTech, Rocky Hill, N.J.) subcutaneously twice daily for 10 consecutive days. The control animals were given PBS alone. 24-hour urines from each mouse were collected twice: one week before the injections and on the last day of the injections. The urine albumin and creatinine were measured with a mouse Albuwell ELISA kit and a Creatinine Companion kit (Exocell, Philadelphia, Pa.) (25,26). The mice were sacrificed five hours after the final gAd injection under anesthesia. Portions of kidney cortex were fixed in buffered formalin and embedded in paraffin. A portion of kidney cortical tissue was cut into 1 mm^3 pieces and fixed in 2.5% glutaraldehyde
Interventional animal studies: The mice were treated with 25 μg of recombinant human globular domain adiponectin gAd (PepROTech, Rocky Hill, N.J.), administered 25 μg/mouse twice a day for 10 consecutive days or full-length adiponectin (fAd) was administered using an AAV vector (AAV2/8 CMV fAd virus 4×1011 GC/mouse for 10 days). A separate group of Ad−/− mice were treated with 5-aminoimidazole-4-carboxamide-1-beta-D-ribonucleoside (AICAR) with a single i.p. dose of 300 mg/kg. The control animals were given PBS alone or control AAV. 24-hour urines from each mouse were collected before treatment and on the last day of the treatment period. The urine albumin and creatinine were measured with a mouse Albuwell ELISA kit and a Creatinine Companion kit (Exocell, Philadelphia, Pa.) (26, 25). As an index of oxidant stress timed urine collections were also analyzed for hydrogen peroxide by Amplex red assay (Invitrogen/Molecular Probes, Carlsbad, Calif.) following the manufacturer's protocol. Portions of liver, muscle and kidney was snap-frozen in liquid nitrogen for RNA isolation. An additional aliquot of normal kidney was frozen in OCT for immunofluorescent staining. […]

B1: adiponectin: 30 kDa adipocyte-secreted protein; in the first series of tests the recombinant globular domain was used, later gAd or fAd (protein, UniProt Q15848 19-244, looked up)
Adiponectin: ETTTQGPGVLLPLPKGACTGWMAGIPGHPGHNGAPGRDGRDGTPGEKGEKGDPGLIGPKGDIGETGVPGAEGPRGFPGIQGRKGEPGEGAYVYRSAFSVGLETYVTIPNMPIRFTKIFYNQQNHYDGSTGKFHCNIPGLYYFAYHITVYMKDVKVSLFKKDKAMLFTYDQYQENNVDQASGSVLLHLEVGDQVWLQVYGEGERNGLYADNDNDSTFTGFLLYHDTN
AMPK activity (AMPKα phosphorylation on Thr-172) in podocytes (AMPK; globular adiponectin 3 μg/ml, 24 h, serum-free, normal glucose): increased
Effect on the high glucose (HG) decrease of AMPK activity in podocytes (AMPK; high glucose exposure plus adiponectin): prevented; also recorded: blocked
Urine albumin/creatinine ratio (albuminuria) [1]: normalized albuminuria levels; also recorded: restores normal albuminuria
